One molecule from US12060424 (AMUNIX PHARMACEUTICALS, dated 2024) can be followed below.

A word on the EC50: it is the concentration at which the effect is half-maximal.

The target in assay [1] is T1, human EpCAM expressed on cells (CHO cells stably transfected with human EpCAM); EpCAM-positive human tumor … (human, UniProt P16422 24-314).
T1 sequence (looked up): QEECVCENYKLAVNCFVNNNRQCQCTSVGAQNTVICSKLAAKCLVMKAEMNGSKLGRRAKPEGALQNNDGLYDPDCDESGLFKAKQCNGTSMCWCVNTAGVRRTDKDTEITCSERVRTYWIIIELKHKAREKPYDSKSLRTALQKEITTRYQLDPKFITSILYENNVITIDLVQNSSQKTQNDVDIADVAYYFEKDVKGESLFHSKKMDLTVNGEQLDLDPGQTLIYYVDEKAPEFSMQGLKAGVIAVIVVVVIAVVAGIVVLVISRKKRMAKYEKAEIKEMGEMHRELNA
As to the kind of experiment: cell-based or functional assay.

In assay [2] the target is recombinant human CD3 epsilon & delta (rhCD3ε & δ), Creative BioMart cat #CD3E&CD3D-219H (human) (UniProt P07766). As to the kind of experiment: sandwich ELISA: rhCD3ε & δ coated, biotinylated anti-XTEN antibody detection. (In general: In an ELISA, binding on a coated surface is turned into a signal by an enzyme label.)
Sequence of recombinant human CD3 epsilon & delta (rhCD3ε & δ), Creative BioMart cat #CD3E&CD3D-219H (human) (P07766 23-126, stated change not applied, chain 1 of 2): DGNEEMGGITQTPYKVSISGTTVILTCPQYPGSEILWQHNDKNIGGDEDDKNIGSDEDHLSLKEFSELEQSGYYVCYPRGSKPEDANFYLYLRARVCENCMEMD
Sequence of recombinant human CD3 epsilon & delta (rhCD3ε & δ), Creative BioMart cat #CD3E&CD3D-219H (human) (P04234 22-105, stated change not applied, chain 2 of 2, further chain): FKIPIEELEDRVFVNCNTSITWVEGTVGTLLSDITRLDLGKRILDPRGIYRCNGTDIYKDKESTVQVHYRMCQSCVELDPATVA

B1: AC1693 protease-untreated anti-EpCAM×anti-CD3 ProTIA (bispecific antibody)
chain: DIQMTQSPSSLSASVGDRVTITCRSTKSLLHSNGITYLYWYQQKPGKAPKLLIYQMSNLASGVPSRFSSSGSGTDFTLTISSLQPEDFATYYCAQNLEIPRTFGQGTKVEIKGATPPETGAETESPGETTGGSAESEPPGEGQVQLVQSGPGLVQPGGSVRISCAASGYTFTNYGMNWVKQAPGKGLEWMGWINTYTGESTYADSFKGRFTFSLDTSASAAYLQINSLRAEDTAVYYCARFAIKGDYWGQGTLLTVSSGGGGSDIQMTQSPSSLSASVGDRVTITCRASQDIRNYLNWYQQKPGKAPKLLIYYTSRLESGVPSRFSGSGSGTDYTLTISSLQPEDFATYYCQQGNTLPWTFGQGTKVEIKGATPPETGAETESPGETTGGSAESEPPGEGEVQLVESGGGLVQPGGSLRLSCAASGYSFTGYTMNWVRQAPGKGLEWVALINPYKGVSTYNQKFKDRFTISVDKSKNTAYLQMNSLRAEDTAVYYCARSGYYGDSDWYFDVWGQGTLVTVSSGTAEAASASGESGRAANHTGAPPGGLTGPPGSPAGSPTSTEEGTSESATPESGPGTSTEPSEGSAPGSPAGSPTSTEEGTSTEPSEGSAPGTSTEPSEGSAPGTSESATPESGPGSEPATSGSETPGSEPATSGSETPGSPAGSPTSTEEGTSESATPESGPGTSTEPSEGSAPGTSTEPSEGSAPGSPAGSPTSTEEGTSTEPSEGSAPGTSTEPSEGSAPGTSESATPESGPGTSTEPSEGSAPGTSESATPESGPGSEPATSGSETPGTSTEPSEGSAPGTSTEPSEGSAPGTSESATPESGPGTSESATPESGPGSPAGSPTSTEEGTSESATPESGPGSEPATSGSETPGTSESATPESGPGTSTEPSEGSAPGTSTEPSEGSAPGTSTEPSEGSAPGTSTEPSEGSAPGTSTEPSEGSAPGTSTEPSEGSAPGSPAGSPTSTEEGTSTEPSEGSAPGTSESATPESGPGSEPATSGSETPGTSESATPESGPGSEPATSGSETPGTSESATPESGPGTSTEPSEGSAPGTSESATPESGPGSPAGSPTSTEEGSPAGSPTSTEEGSPAGSPTSTEEGTSESATPESGPGTSTEPSEGSAPGTSESATPESGPGSEPATSGSETPGTSESATPESGPGSEPATSGSETPGTSESATPESGPGTSTEPSEGSAPGSPAGSPTSTEEGTSESATPESGPGSEPATSGSETPGTSESATPESGPGSPAGSPTSTEEGSPAGSPTSTEEGTSTEPSEGSAPGTSESATPESGPGTSESATPESGPGTSESATPESGPGSEPATSGSETPGSEPATSGSETPGSPAGSPTSTEEGTSTEPSEGSAPGTSTEPSEGSAPGSEPATSGSETPGTSESATPESGPGTSTEPSEGSAPGHHHHHH
In the case of B1, in assay [1], the “EC50 (pM), caspase 3/7 cytotoxicity, PBMC with HCT-116 cells 10:1” value was 21 pM; the “EC50 (pM), caspase 3/7 cytotoxicity, PBMC with HPAF-II cells 10:1” value came out at 12 pM; the “EC50 (pM), caspase 3/7 cytotoxicity, PBMC with MDA-MB-231 cells 10:1” value amounted to 3480 pM. In assay [2], the EC50 stood at 9 ng/mL and the fold more active binding than the non-cleavable AC1484 is 3 fold.
